The results in this text go back to patent US8536230B2, “Methods for regulating gelation of polysaccharide solutions and uses thereof” (University of Virginia Patent Foundation, priority 2006, dated 2013).

The series can be described thus: In vitro release of FITC-dextran / FITC-albumin from chitosan-AHP gels in PBS. In kind it is physicochemical. The settings on record: FITC albumin loaded (1, 2, and 3%) gels, PBS 37° C. As to the method:
FITC dextran loaded samples (0.5×1 cm) were placed in histology cups and incubated in 50 mL PBS at 37° C. in a shaking water bath. At predetermined time points, 5 mL of the release media was removed and replenished with 5 mL of PBS. The FITC dextran concentration was determined spectrophotometrically and the percentage cumulative release was calculated. The three groups include 1% dextran, 0.5% dextran, and 0.5% dextran diluted. (see FIG. 8A).
For FITC-dextran loading, appropriate amounts (0.5, 1, and 5% w/v) of FITC-dextrans were dissolved in chitosan-AHP solutions. The respective dextran loaded solutions were poured into petri dishes and allowed to set at 37° C. for 12 h. Circular discs (8 mm diameter) were bored from the thermo-gelled films for in vitro release studies. […] The FITC-dextran concentration in the release media were determined spectrophotometrically at 491 nm and the percentage cumulative release was calculated based on the total FITC-D content. Statistical significance (p<0.05) was determined using one way ANOVA.
Also tested was the release profile of FITC-labeled bovine serum albumin from chitosan-AHP gels represented as the percentage cumulative release. […] The FITC albumin concentration was determined spectrophotometrically and the percentage cumulative release was calculated. […]

For “FITC-albumin: FITC-labeled bovine serum albumin loaded in chitosan-AHP gels”, the “percentage cumulative release profile” value is given as “significantly lower compared to FITC-Dextran”.
